According to publication PMC12866682 (2025):

T1: Purified human MPO (human, UniProt P05164 49-745)
T1 chain: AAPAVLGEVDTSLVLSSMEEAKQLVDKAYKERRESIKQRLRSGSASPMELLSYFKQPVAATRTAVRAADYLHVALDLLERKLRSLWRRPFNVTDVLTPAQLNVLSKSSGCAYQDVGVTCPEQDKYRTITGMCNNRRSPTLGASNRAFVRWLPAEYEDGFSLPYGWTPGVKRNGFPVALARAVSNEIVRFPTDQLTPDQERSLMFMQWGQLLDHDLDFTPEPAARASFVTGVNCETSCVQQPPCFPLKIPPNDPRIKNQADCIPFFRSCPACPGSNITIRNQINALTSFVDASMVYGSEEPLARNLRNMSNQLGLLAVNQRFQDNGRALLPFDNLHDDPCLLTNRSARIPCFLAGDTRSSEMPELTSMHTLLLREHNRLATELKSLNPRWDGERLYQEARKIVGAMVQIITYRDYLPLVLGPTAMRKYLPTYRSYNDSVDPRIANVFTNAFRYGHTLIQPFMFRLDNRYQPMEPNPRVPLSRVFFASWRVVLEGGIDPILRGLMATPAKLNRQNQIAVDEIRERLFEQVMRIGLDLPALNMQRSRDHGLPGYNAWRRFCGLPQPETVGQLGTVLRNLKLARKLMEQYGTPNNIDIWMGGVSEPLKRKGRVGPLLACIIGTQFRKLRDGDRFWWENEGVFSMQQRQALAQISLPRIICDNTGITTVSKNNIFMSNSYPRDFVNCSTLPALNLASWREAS


Experiments:
T96K TREM2 protein = T96K TREM2 protein (UniProt Q9NZC2); assay: solid-phase binding (SPB) assay; WT, R47H or T96K TREM2 immobilised, MPO in solution (n=5); method not described in the text shown
Purified human MPO = target: T1, Purified human MPO; assay: SPR

Molecule	fold affinity over the WT or R47H TREM2 protein (T96K TREM2 protein) [fold]	Kd (Purified human MPO) [nM]
Purified human MPO (from UniProt P05164 49-745) (ligand)	1.3	–
Purified human TREM2 protein (receptor) HNTTVFQGVAGQSLQVSCPYDSMKHWGRRKAWCRQLGEKGPCQRVVSTHNLWLLSFLRRWNGSTAITDDTLGGTLTITLRNLQPHDAGLYQCQSLHGSEADTLRKVLVEVLADPLDHRDAGDLWFPGESESFEDAHVEHSISRSLLEGEIPFPPTSILLLLACIFLIKILAASALWAAAWHGQKPGTHPPSELDCGHDPGYQLQTLPGLRDT	–	551
